The values that follow come from US5976535A, “Pretargeting protocols for the enhanced localization of cytotoxins to target sites and cytotoxic combinations useful therefore” (NeoRx Corporation, priority 1995, dated 1999).

For orientation: half-life means the time needed for the level to fall by half in the phase considered. Low readings indicate rapid decline, high ones slow decline.

Where two headings read alike, the source gives them in different places.

The subject of series [1] is LS-180 human colon tumor xenografts. The method, then:
The experimental protocol was as follows:
Group 1: Time 0, inject 100 μg ^125 I-labeled,
The three radiolabels employed in this protocol are capable of detection in the presence of each other.
Areas under the curves (AUC) and the ratio of AUCtumor /AUCblood were determined.

For series [2] the following is noted: in vivo; cited from earlier work.
Series [3] deals with LS-180 tumor xenografts. Briefly: Two-step pretargeting of 131I-PIP-biocytin in tumor-bearing mice. Type of series: in vivo, female nude mice. Conditions: 200 μg NR-LU-10-streptavidin at t=0; 42 μg at t=36 h. The method, then:
At t=0, the mice were injected with 200 μg of NR-LU-10-streptavidin conjugate labeled with ^125 I using PIP-NHS (see Example IV.A.). At t=36 h, the mice received 42 μg of ^131 IPIP-biocytin.

The next series is described as follows: in vivo. To be noted: mouse.
The next series concerns LS-180 tumor. To be noted: mouse, in vivo.
Series [4] can be described thus: Tumor uptake of PIP-biocytin (two-step pretargeting). The format is in vivo, tumored nude mice. Conditions: mouse, tumor, 0.0005 mg; 0.5 μg dose; 120 hour time point (96 hours after administration); read-out: peak tumor uptake. The procedure:
(§1) At 24 hours, the mice received an i.v. injection of PIP-I-131-biocytin (40 μCi) and an amount of cold carrier PIP-I-127 biocytin corresponding to doses of 42 μg (69,767 pmol), 21 μg (34,884 pmol), 5.7 μg (9468 pmol), 2.85 μg (4734 pmol) or 0.5 μg (830 pmol).

Series [5] has as its system LS-180 tumor xenografts. The description is as above. Type of series: in vivo, tumored nude mice. The method, then: as §1
In series [6] the target is T1, Streptavidin-agarose beads (Streptomyces avidinii, UniProt P22629).
T1 construct: purchased Sigma S-1638
The series is described as follows: Binding to streptavidin-agarose beads. Conditions: for Pellet: radioactivity bound to beads; for Supernatant: radioactivity not bound to beads. The method, then: B. Biotinylation of asialoorosomucoid clearing agent and orosomucoid control. 100 μl of 0.2 M sodium carbonate buffer, pH 9.2, was added to 2 mg (in 1.00 ml PBS) of PIP-125-labeled orosomucoid and to 2 mg PIP-125-labeled asialoorosomucoid. 60 μl of a 1.85 mg/ml solution of NHS-amino caproate biotin in DMSO was then added to each compound. The reaction mixtures were vortexed and allowed to sit at room temperature for 45 minutes. […]. Streptavidin-agarose beads (Sigma S-1638) or -pellets were washed with PBS, and 20 μg of each biotinylated, radiolabeled protein was added to 400 μl of beads and 400 μl of PBS, vortexed for 20 seconds and centrifuged at 14,000 rpm for 5 minutes. The supernatant was removed and the pellets were washed with 400 μl PBS. This wash procedure was repeated twice more, and the combined supernatants were assayed by placing them in a dosimeter versus their respective pellets.

Series [7] is classed as in vivo, female BALB/c mice. Conditions: 5 minutes post-administration, percent injected dose of I-125-labeled protein. The procedure: A. Derivitization of orosomucoid. 10 mg human orosomucoid (Sigma N-9885) was dissolved in 3.5 ml of pH 5.5 0.1 M sodium acetate buffer containing 160 mM NaCl. 70 μl of a 2% (w/v) CaCl solution in deionized (D.I.) water was added and 11 μl of neuraminidase (Sigma N-7885), 4.6 U/ml, was added. The mixture was incubated at 37° C. for 2 hours, and the entire sample was exchanged over a Centricon-10® ultrafiltration device (available from Amicon, Danvers, Mass.) with 2 volumes of PBS. The asialoorosomucoid and orosomucoid starting material were radiolabeled with I-125 using PIP technology, as described in Example IV above.
In addition, two animals receiving each compound were sacrificed at 5 minutes post-administration and limited biodistributions were performed.

T1 sequence (P22629 25-183): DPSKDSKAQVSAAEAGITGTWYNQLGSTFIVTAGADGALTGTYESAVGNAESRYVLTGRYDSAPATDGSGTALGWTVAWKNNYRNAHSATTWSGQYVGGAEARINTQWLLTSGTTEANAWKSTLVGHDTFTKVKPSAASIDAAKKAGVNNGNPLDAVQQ
Description for in vivo: Time 0 inject (i.v.) 200 μg NR-LU-10-StrAv

Avidin: the tumor uptake entry is listed as “about 250 pmol/g” in series [1] (at 25 h (antibody at time 0, avidin at 24 h)); ~150 pmol/g in [1] (at 32 h (antibody at time 0, avidin at 24 h)); ~50 pmol/g in [1] (at 48 h (antibody at time 0, avidin at 24 h)); ~0 pmol/g in [1] (at 120 h (antibody at time 0, avidin at 24 h)).

As for TNF-alpha, the serum half-life in [2] is 10 to 15 min.

Turning to `O=C(CCCCC1SCC2NC(=O)NC21)NCCCCC(NC(=O)c1ccc([131I])cc1)C(=O)O` (stereo not shown) [PIP-biocytin], in the series with LS-180 tumor xenografts [3], the “specific tumor localization, molecules per avidin molecule” value is reported as “≈ 1.5”. For the same molecule, the half-life in the series “in vivo” is ~5 min. Moreover, in the series with LS-180 tumor, the peak tumor uptake entry was “about 700 pMOL/G” and the tumor uptake entry was “above 500 pMOL/G”. In addition, the tissue uptake at 96 h in series [4] was 85 %ID/g. The “absolute AUCtumor” value with LS-180 tumor xenografts [5] (mouse, in vivo) is on record as 9220. Further, the tumor localization result in the series with LS-180 tumor xenografts [5] (three highest doses (42, 21, 5.7 μg), 4 hours after injection) was “about 600 pmol/g”.

As to “orosomucoid: human orosomucoid (alpha-1 acid glycoprotein, Sigma N-9885), I-125 labeled [reference compound]”, in series [6], the Pellet amounted to 10% and the Supernatant is reported as 90%. In series [7], this molecule came in with a blood level of 78%.

For the molecule “asialoorosomucoid: orosomucoid treated with neuraminidase to remove sialic acid residues”, in series [6], the Pellet came to 8.0% and the Supernatant came to 92%. Besides, in series [7], the blood level was determined as 0.4%.

B1: TNF-beta: tumor necrosis factor beta form, 171 amino acids (protein, UniProt P01374 35-205, looked up)
Lymphotoxin-alpha: LPGVGLTPSAAQTARQHPKMHLAHSTLKPAAHLIGDPSKQNSLLWRANTDRAFLQDGFSLSNNSLLVPTSGIYFVYSQVVFSGKAYSPKATSSPLYLAHEVQLFSSQYPFHVPLLSSQKMVYPGLQEPWLHSMYHGAAFQLTQGDQLSTHTDGIPHLVLSPSTVFFGAFAL
As for B1, in series [2], the serum half-life is 10 to 15 min.
